# Measurements as given in patent publication US20120178908A1 (Novo Nordisk, published 2012).
# T1: TLT-1 18-188 relipidated in 20:80 PS:PC vesicles (human, UniProt Q86YW5 18-188)
# T1 sequence: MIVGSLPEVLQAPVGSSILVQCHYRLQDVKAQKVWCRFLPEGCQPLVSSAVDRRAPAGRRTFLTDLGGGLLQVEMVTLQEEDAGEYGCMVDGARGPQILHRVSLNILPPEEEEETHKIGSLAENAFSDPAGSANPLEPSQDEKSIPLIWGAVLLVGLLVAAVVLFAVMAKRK
# T2: TLT-1 receptor on the surface of activated human platelets (human, UniProt Q86YW5 16-311)
# T2 sequence: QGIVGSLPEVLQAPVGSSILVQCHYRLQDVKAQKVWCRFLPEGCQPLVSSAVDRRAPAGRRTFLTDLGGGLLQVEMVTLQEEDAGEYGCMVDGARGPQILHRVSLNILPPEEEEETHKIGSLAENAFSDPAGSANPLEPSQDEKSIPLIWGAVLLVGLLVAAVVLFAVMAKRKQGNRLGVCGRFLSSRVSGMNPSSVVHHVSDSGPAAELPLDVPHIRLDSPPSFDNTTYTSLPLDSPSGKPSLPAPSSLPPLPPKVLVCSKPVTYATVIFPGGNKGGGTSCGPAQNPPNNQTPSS
# B1: Fab 0052-LC-L4a-TF;VH-CH1-HPC4 (other)
# light chain-linker-TF: DIQMTQTTSSLSASLGDRVTISCRASQDISNYLNWYQQKPDGTVKLLIFYTSRLHSGVPSRFSGSGSGTDYSLTISNLEPEDIATYYCQQDTKLPYTFGGGTKLEMKRTVAAPSVFIFPPSDEQLKSGTASVVCLLNNFYPREAKVQWKVDNALQSGNSQESVTEQDSKDSTYSLSSTLTLSKADYEKHKVYACEVTHQGLSSPVTKSFNRGECGSGGGGSGGGGSGGGGSSGTTNTVAAYNLTWKSTNFKTILEWEPKPVNQVYTVQISTKSGDWKSKCFYTTDTECDLTDEIVKDVKQTYLARVFSYPAGNVESTGSAGEPLYENSPEFTPYLETNLGQPTIQSFEQVGTKVNVTVEDERTLVRRNNTFLSLRDVFGKDLIYTLYYWKSSSSGKKTAKTNTNEFLIDVDKGENYCFSVQAVIPSRTVNRKSTDSPVECMGQEKGEFRE
# VH-CH1-HPC4: QVQLQQSGAEPMKPGASVKISCKATGYTFSSHWIEWIKQRPGHGLEWIGEILPGSGNTNYNEKFKGKATFTADTSSNTAYMQLSSLTSEDSAVYCCARGYYGLNYDWYFDVWGAGTTVTVSSASTKGPSVFPLAPCSRSTSESTAALGCLVKDYFPEPVTVSWNSGALTSGVHTFPAVLQSSGLYSLSSVVTVPSSSLGTKTYTCNVDHKPSNTKVDKRVESKEDQVDPRLIDGK
# B2: Fab 0052-VH-CH1-L4a-TF;LC-HPC4 (other)
# VH-CH1-linker-TF: QVQLQQSGAEPMKPGASVKISCKATGYTFSSHWIEWIKQRPGHGLEWIGEILPGSGNTNYNEKFKGKATFTADTSSNTAYMQLSSLTSEDSAVYCCARGYYGLNYDWYFDVWGAGTTVTVSSASTKGPSVFPLAPCSRSTSESTAALGCLVKDYFPEPVTVSWNSGALTSGVHTFPAVLQSSGLYSLSSVVTVPSSSLGTKTYTCNVDHKPSNTKVDKRVESKGSGGGGSGGGGSGGGGSSGTTNTVAAYNLTWKSTNFKTILEWEPKPVNQVYTVQISTKSGDWKSKCFYTTDTECDLTDEIVKDVKQTYLARVFSYPAGNVESTGSAGEPLYENSPEFTPYLETNLGQPTIQSFEQVGTKVNVTVEDERTLVRRNNTFLSLRDVFGKDLIYTLYYWKSSSSGKKTAKTNTNEFLIDVDKGENYCFSVQAVIPSRTVNRKSTDSPVECMGQEKGEFRE
# light chain-HPC4: DIQMTQTTSSLSASLGDRVTISCRASQDISNYLNWYQQKPDGTVKLLIFYTSRLHSGVPSRFSGSGSGTDYSLTISNLEPEDIATYYCQQDTKLPYTFGGGTKLEMKRTVAAPSVFIFPPSDEQLKSGTASVVCLLNNFYPREAKVQWKVDNALQSGNSQESVTEQDSKDSTYSLSSTLTLSKADYEKHKVYACEVTHQGLSSPVTKSFNRGECEDQVDPRLIDGK
# B3: Fab 0023-LC-L7-TF;VH-CH1-HPC4 (other)
# light chain-linker-TF: DIVVSQSPSSLAVSAGEKVTMSCKSSQSLLNSRTRKNYLAWYQQKPGQSPKLLIYWASTRESGVPDRFTGSGSGTDFTLTISSVQAEDLAVYYCKQSYNLLTFGAGTKLELKRTVAAPSVFIFPPSDEQLKSGTASVVCLLNNFYPREAKVQWKVDNALQSGNSQESVTEQDSKDSTYSLSSTLTLSKADYEKHKVYACEVTHQGLSSPVTKSFNRGECGGGGSGGGGSGGGGSGSGGGGSGGGGSGGGGSSGTTNTVAAYNLTWKSTNFKTILEWEPKPVNQVYTVQISTKSGDWKSKCFYTTDTECDLTDEIVKDVKQTYLARVFSYPAGNVESTGSAGEPLYENSPEFTPYLETNLGQPTIQSFEQVGTKVNVTVEDERTLVRRNNTFLSLRDVFGKDLIYTLYYWKSSSSGKKTAKTNTNEFLIDVDKGENYCFSVQAVIPSRTVNRKSTDSPVECMGQEKGEFRE
# VH-CH1-HPC4: EVRLVESGGGLVQPGGSLKLSCATSGFTFSDYFMYWIRQTPEKRLEWVAYISNGGDSSSYPDTVKGRFTISRDNAKNTLYLQMSRLKSEDTAMYYCATNKNWDDYYDMDYWGQGTSVTVSSASTKGPSVFPLAPCSRSTSESTAALGCLVKDYFPEPVTVSWNSGALTSGVHTFPAVLQSSGLYSLSSVVTVPSSSLGTKTYTCNVDHKPSNTKVDKRVESKEDQVDPRLIDGK
# B4: Fab 0023-LC-L8-TF;VH-CH1-HPC4 (other)
# light chain-linker-TF: DIVVSQSPSSLAVSAGEKVTMSCKSSQSLLNSRTRKNYLAWYQQKPGQSPKLLIYWASTRESGVPDRFTGSGSGTDFTLTISSVQAEDLAVYYCKQSYNLLTFGAGTKLELKRTVAAPSVFIFPPSDEQLKSGTASVVCLLNNFYPREAKVQWKVDNALQSGNSQESVTEQDSKDSTYSLSSTLTLSKADYEKHKVYACEVTHQGLSSPVTKSFNRGECGGGGSGGGGSGGGGSGGGGSGSGGGGSGGGGSGGGGSSGTTNTVAAYNLTWKSTNFKTILEWEPKPVNQVYTVQISTKSGDWKSKCFYTTDTECDLTDEIVKDVKQTYLARVFSYPAGNVESTGSAGEPLYENSPEFTPYLETNLGQPTIQSFEQVGTKVNVTVEDERTLVRRNNTFLSLRDVFGKDLIYTLYYWKSSSSGKKTAKTNTNEFLIDVDKGENYCFSVQAVIPSRTVNRKSTDSPVECMGQEKGEFRE
# VH-CH1-HPC4: B3 VH-CH1-HPC4
# B5: Fab 0023-LC-L9-TF;VH-CH1-HPC4 (other)
# light chain-linker-TF: DIVVSQSPSSLAVSAGEKVTMSCKSSQSLLNSRTRKNYLAWYQQKPGQSPKLLIYWASTRESGVPDRFTGSGSGTDFTLTISSVQAEDLAVYYCKQSYNLLTFGAGTKLELKRTVAAPSVFIFPPSDEQLKSGTASVVCLLNNFYPREAKVQWKVDNALQSGNSQESVTEQDSKDSTYSLSSTLTLSKADYEKHKVYACEVTHQGLSSPVTKSFNRGECGGGGSGGGGSGGGGSGGGGSGGGGSGSGGGGSGGGGSGGGGSSGTTNTVAAYNLTWKSTNFKTILEWEPKPVNQVYTVQISTKSGDWKSKCFYTTDTECDLTDEIVKDVKQTYLARVFSYPAGNVESTGSAGEPLYENSPEFTPYLETNLGQPTIQSFEQVGTKVNVTVEDERTLVRRNNTFLSLRDVFGKDLIYTLYYWKSSSSGKKTAKTNTNEFLIDVDKGENYCFSVQAVIPSRTVNRKSTDSPVECMGQEKGEFRE
# VH-CH1-HPC4: B3 VH-CH1-HPC4
# B6: Fab 0051-VH-CH1-L4a-TF;LC-HPC4 (other)
# VH-CH1-linker-TF: QVQLEQSGAELVRPGVSVKISCKGSGYTFTDYSMHWVKQSHAKSLEWIGVISTYYGDVRYNQKFKGKATMTVDKSSSTAYMALARLTSEDSAIYYCARAPMITTGAWFAYWGQGTLVTVSAASTKGPSVFPLAPCSRSTSESTAALGCLVKDYFPEPVTVSWNSGALTSGVHTFPAVLQSSGLYSLSSVVTVPSSSLGTKTYTCNVDHKPSNTKVDKRVESKGSGGGGSGGGGSGGGGSSGTTNTVAAYNLTWKSTNFKTILEWEPKPVNQVYTVQISTKSGDWKSKCFYTTDTECDLTDEIVKDVKQTYLARVFSYPAGNVESTGSAGEPLYENSPEFTPYLETNLGQPTIQSFEQVGTKVNVTVEDERTLVRRNNTFLSLRDVFGKDLIYTLYYWKSSSSGKKTAKTNTNEFLIDVDKGENYCFSVQAVIPSRTVNRKSTDSPVECMGQEKGEFRE
# light chain-HPC4: SIVMTQTPKFLLVSAGDRVTITCKASQSVSNDVAWYQQKPGQSPKLLINYASSRYTGIPDRFTGSGYGTDFTFTISTVQAEDLAVYFCQQDYSSPYTFGGGTKLEIERTVAAPSVFIFPPSDEQLKSGTASVVCLLNNFYPREAKVQWKVDNALQSGNSQESVTEQDSKDSTYSLSSTLTLSKADYEKHKVYACEVTHQGLSSPVTKSFNRGECEDQVDPRLIDGK
# B7: hTF.1-219 (soluble tissue factor) (receptor)
# chain: SGTTNTVAAYNLTWKSTNFKTILEWEPKPVNQVYTVQISTKSGDWKSKCFYTTDTECDLTDEIVKDVKQTYLARVFSYPAGNVESTGSAGEPLYENSPEFTPYLETNLGQPTIQSFEQVGTKVNVTVEDERTLVRRNNTFLSLRDVFGKDLIYTLYYWKSSSSGKKTAKTNTNEFLIDVDKGENYCFSVQAVIPSRTVNRKSTDSPVECMGQEKGEFRE
# B8: Fab 0023-VH-CH1-L4a-TF;LC-HPC4 (other)
# VH-CH1-linker-TF: EVRLVESGGGLVQPGGSLKLSCATSGFTFSDYFMYWIRQTPEKRLEWVAYISNGGDSSSYPDTVKGRFTISRDNAKNTLYLQMSRLKSEDTAMYYCATNKNWDDYYDMDYWGQGTSVTVSSASTKGPSVFPLAPCSRSTSESTAALGCLVKDYFPEPVTVSWNSGALTSGVHTFPAVLQSSGLYSLSSVVTVPSSSLGTKTYTCNVDHKPSNTKVDKRVESKGSGGGGSGGGGSGGGGSSGTTNTVAAYNLTWKSTNFKTILEWEPKPVNQVYTVQISTKSGDWKSKCFYTTDTECDLTDEIVKDVKQTYLARVFSYPAGNVESTGSAGEPLYENSPEFTPYLETNLGQPTIQSFEQVGTKVNVTVEDERTLVRRNNTFLSLRDVFGKDLIYTLYYWKSSSSGKKTAKTNTNEFLIDVDKGENYCFSVQAVIPSRTVNRKSTDSPVECMGQEKGEFRE
# light chain-HPC4: DIVVSQSPSSLAVSAGEKVTMSCKSSQSLLNSRTRKNYLAWYQQKPGQSPKLLIYWASTRESGVPDRFTGSGSGTDFTLTISSVQAEDLAVYYCKQSYNLLTFGAGTKLELKRTVAAPSVFIFPPSDEQLKSGTASVVCLLNNFYPREAKVQWKVDNALQSGNSQESVTEQDSKDSTYSLSSTLTLSKADYEKHKVYACEVTHQGLSSPVTKSFNRGECEDQVDPRLIDGK
# Molecular target: T1, TLT-1 18-188 relipidated in 20:80 PS:PC …
# Assay: cell-based or functional assay
FVII-mediated FXa generation % Activity lipidated TLT-1,FVIIa-mediated FXa generation % Activity lipidated TLT-1,Binder
9%,29%,B1
13%,29%,B2
25%,40%,B3
24%,35%,B4
24%,38%,B5
22%,48%,B6
1%,13%,B7
26%,53%,B8

# Molecular target: T2, TLT-1 receptor on the surface of …
# Assay: cell-based or functional assay
FVIIa-mediated FXa generation % Activity activated plts (n 1),FVII-mediated FXa generation % Activity activated plts (n 1),Binder
20%,–,B1
25%,10%,B2
35%,17%,B3
33%,16%,B4
32%,14%,B5
72%,43%,B6
4%,2%,B7
45%,14%,B8
